Article PMC3502708

What was measured:
[1] = molecular target: MOZ PHD1/2 fingers (aa 207-318) (human), Q92794; experiment: other fluorescence titration
[2] = molecular target: T1, MORF PHD1/2 fingers (aa 211-329) (human), Q8WYB5; experiment: other fluorescence titration
T1 chain: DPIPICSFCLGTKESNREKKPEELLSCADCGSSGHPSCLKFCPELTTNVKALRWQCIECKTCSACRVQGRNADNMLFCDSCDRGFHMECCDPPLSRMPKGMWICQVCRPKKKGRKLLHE

MOZ PHD1/2 fingers (aa 207-318) (human), Q92794, sequence (Q92794 207-318): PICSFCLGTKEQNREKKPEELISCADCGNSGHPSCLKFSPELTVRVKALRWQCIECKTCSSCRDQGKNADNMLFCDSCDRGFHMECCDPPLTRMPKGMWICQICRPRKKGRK

Binder: ARTKQTARKSTG (modifications not checked) [unmodified histone H3 peptide (length not stated for the experiment)]
- Kd [1]: 3.9 µM
- Kd [2]: 4.3 µM
